From IntAct's records for PubMed 20700104

B1: Caspase Dronc (Drosophila melanogaster (Fruit fly)), Q9XYF4 (parent)
chain: MQPPELEIGMPKRHREHIRKNLNILVEWTNYERLAMECVQQGILTVQMLRNTQDLNGKPFNMDEKDVRVEQHRRLLLKITQRGPTAYNLLINALRNINCLDAAVLLESVDESDSRPPFISLNERRTSRKSADIVDTPSPEASEGPCVSKLRNEPLGALTPYVGVVDGPEVKKSKKIHGGDSAILGTYKMQSRFNRGVLLMVNIMDYPDQNRRRIGAEKDSKSLIHLFQELNFTIFPYGNVNQDQFFKLLTMVTSSSYVQNTECFVMVLMTHGNSVEGKEKVEFCDGSVVDMQKIKDHFQTAKCPYLVNKPKVLMFPFCRGDEYDLGHPKNQGNLMEPVYTAQEEKWPDTQTEGIPSPSTNVPSLADTLVCYANTPGYVTHRDLDTGSWYIQKFCQVMADHAHDTDLEDILKKTSEAVGNKRTKKGSMQTGAYDNLGFNKKLYFNPGFFNE
B2: Caspase Dronc (Drosophila melanogaster (Fruit fly)), Q9XYF4 (parent)
chain: B1 chain
partner: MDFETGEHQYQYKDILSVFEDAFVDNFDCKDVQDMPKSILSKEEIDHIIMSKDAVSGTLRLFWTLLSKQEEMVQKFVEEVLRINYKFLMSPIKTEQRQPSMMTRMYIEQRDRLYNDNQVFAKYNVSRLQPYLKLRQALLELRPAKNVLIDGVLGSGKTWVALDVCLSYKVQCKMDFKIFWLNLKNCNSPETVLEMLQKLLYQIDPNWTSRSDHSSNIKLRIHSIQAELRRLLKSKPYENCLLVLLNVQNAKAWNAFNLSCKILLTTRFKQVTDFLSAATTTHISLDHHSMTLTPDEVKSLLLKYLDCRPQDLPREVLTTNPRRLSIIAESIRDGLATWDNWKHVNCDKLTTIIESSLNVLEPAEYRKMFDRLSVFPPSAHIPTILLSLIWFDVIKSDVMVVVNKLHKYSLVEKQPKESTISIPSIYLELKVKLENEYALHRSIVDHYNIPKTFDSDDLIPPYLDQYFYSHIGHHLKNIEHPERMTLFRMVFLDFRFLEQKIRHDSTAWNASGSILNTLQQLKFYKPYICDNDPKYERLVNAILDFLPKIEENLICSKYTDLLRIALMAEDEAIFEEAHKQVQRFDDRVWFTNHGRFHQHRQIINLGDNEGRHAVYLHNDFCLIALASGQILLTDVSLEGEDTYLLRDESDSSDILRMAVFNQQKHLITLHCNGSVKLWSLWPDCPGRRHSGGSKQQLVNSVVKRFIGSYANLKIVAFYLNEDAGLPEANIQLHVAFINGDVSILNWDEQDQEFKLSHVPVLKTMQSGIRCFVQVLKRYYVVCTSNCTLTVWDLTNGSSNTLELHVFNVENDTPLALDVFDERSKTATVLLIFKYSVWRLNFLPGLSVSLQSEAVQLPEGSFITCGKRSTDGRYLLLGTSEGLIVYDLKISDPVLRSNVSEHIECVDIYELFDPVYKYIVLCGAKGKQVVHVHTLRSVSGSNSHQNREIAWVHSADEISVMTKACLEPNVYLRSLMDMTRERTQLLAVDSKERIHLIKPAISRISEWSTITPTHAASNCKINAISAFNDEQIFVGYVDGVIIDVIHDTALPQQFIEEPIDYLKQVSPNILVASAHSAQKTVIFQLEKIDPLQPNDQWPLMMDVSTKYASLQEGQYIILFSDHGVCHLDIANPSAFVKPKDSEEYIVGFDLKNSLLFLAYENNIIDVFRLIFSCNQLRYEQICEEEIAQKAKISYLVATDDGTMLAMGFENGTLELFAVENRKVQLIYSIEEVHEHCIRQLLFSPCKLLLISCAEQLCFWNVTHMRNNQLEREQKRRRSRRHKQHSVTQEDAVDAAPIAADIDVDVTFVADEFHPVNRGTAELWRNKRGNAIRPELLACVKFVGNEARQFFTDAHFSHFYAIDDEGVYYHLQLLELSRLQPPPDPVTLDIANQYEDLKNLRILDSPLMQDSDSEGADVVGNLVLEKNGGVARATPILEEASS

Variants of: B1
Details: with kcc2a_drome CaMKII
S130A was tested, and the “effect of a mutation on the interaction” value was “disrupting interaction”.

Variants of: B2
Details: with apaf_drome Dark
With C318A the “effect of a mutation on the interaction” value was “increasing interaction”.
In the case of S130A, the “effect of a mutation on the interaction” value is reported as “increasing interaction”.
